This data set concerns the molecule itself. Description: dynamic light scattering; fresh linker sample after dialysis from 4 M urea into 20 mM sodium phosphate, 0.2 mM EDTA, pH 8.0; 25 μM stock.

B1: DNAJB6b (76–186), the 110-residue low complexity linker of DNAJB6b (domain or fragment, UniProt O75190-2 76-186, looked up)
chain: GGGGGSHFDSPFEFGFTFRNPDDVFREFFGGRDPFSFDFFEDPFEDFFGNRRGPRGSRSRGTGSFFSAFSGFPSFGSGFSSFDTGFTSFGSLGHGGLTSFSSTSFGGSGMG
notes: also called JB6 linker; linker peptide
B1: the binding result was “binds”.

These data come from paper PMC12722041, “The low complexity linker of DNAJB6b is key to its anti-amyloid function” (QRB Discovery, 2025).
